1 substance from patent US20250101113A1 can be followed below.

In the assay the target is human CD94 on cells (human) (UniProt Q13241). The experiment in a line: cell-based or functional assay.
Sequence of UniProt Q13241 (Q13241 whole entry): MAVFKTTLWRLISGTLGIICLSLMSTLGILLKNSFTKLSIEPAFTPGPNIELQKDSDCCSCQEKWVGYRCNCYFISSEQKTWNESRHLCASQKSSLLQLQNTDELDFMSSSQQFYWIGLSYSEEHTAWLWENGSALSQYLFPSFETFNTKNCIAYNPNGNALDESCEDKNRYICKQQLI

Take “commercial murine anti-CD94 antibody (clone DX22 from Biolegend Catalog #305502)”: the CD107a expression on IL-2-activated NK cells co-cultured with HLA-E-expressing SP-53 cells (% of cells) worked out at 16%.
